Measurements taken from patent publication US8241646B2, “Method for generating active antibodies against a resistance antigen, antibodies obtained by said method and their uses” (Pierre Fabre Medicament, priority 2006, dated 2012).

B1: 2E11: monoclonal antibody, heavy chain SEQ ID No. 23, light chain SEQ ID No. 24; hybridoma CNCM I-3615; IgG1 k (antibody, V domains shown)
VH: EVQLQQSGAEVVKPGASVKLSCTASGFNIKDTYMHWVKQRPEQGLEWIGRIDPANGNTKSDPKFQGKAIKTADTSSNTAYLQLSSLTSEDTAVYYCTSGYTNYVWFTYWGQGTLVTVSA
VL: DIVMSQSPSSLAVAAGEKVTMSCKASQSLLNSRTRKNYLAWYQQKPGQSPKLLIYWASTRESGVPDRFTGSGSGTDFSLTISSVQAEDLAVYYCKQSYNLYTFGGGTKLEIK
modifications: mus musculus
notes: hybridoma CNCM I-3615; IgG1 k
B2: 1A9: monoclonal antibody, heavy chain SEQ ID No. 15, light chain SEQ ID No. 16; hybridoma CNCM I-3613; IgG1 k (antibody, V domains shown)
VH: QIQLVQSGPELKKPGETVKISCKASGQTFTNYGMNWVKQAPGKGLKWMGWINTYTGEPTYADDFKGRFAFSLETSASTAYLQINNLKNEDTATYFCARGGYYRYAAYWGQGTLVTVSA
VL: DIQMTQSPASLSASVGETVTITCRASGNIHNYLAWYQQKQGKSPQLLVYNAKTLADGVPSRFSGSGSGTQYSLKINSLQPEDFGCYFCQHFWTTPYTFGGGTKLELI
modifications: mus musculus
notes: hybridoma CNCM I-3613; IgG1 k
B3: 3G7: monoclonal antibody, heavy chain SEQ ID No. 39, light chain SEQ ID No. 40; hybridoma CNCM I-3616; IgM (antibody, V domains shown)
VH: QVQLQQSGPELVRPGTSVKISCKASGYTFTNYWLGWVKQRPGHGLEWIGDIFPGGIYTNYNEKIKGEATLTADTSSSTAYLQLSSLTSEDSFVYFCARFDDFDPFFASWGQGTLVTVSA
VL: DVLMTQTPLSLPVSLGDQASISCRSSQTIVHSNGNTYLEWYLQKPGQSPKLLIYKVSNRFSGVPDRFSGSGSGTDFTLNISRVEAEDLGIYYCFQSSRVPYTFGGGTKLEIK
modifications: mus musculus
notes: hybridoma CNCM I-3616; IgM
B4: 3C11: monoclonal antibody, heavy chain SEQ ID No. 31, light chain SEQ ID No. 32; hybridoma CNCM I-3614; IgM k (antibody, V domains shown)
VH: QVQLKESGPGLVAPSQSLSITCTVSGFSLSSYGVHWVRQPPGKGLEWLGVIWVGGTTNFKSALMSRLSISKDNSKSQVFLKMNSLQTDDTAMYYCARERPYGNPLVDWGQGTLVTVSA
VL: DIVMTQSHKFMSTSVGDRVSITCKASQDVSTAVAWYQQKPGQSPKLLIYSASYRYTGVPDRFTGSGSGTDFTFTISSVQAEDLAVYYCQQHYSNPRTFGGGTKLEIK
modifications: mus musculus
notes: hybridoma CNCM I-3614; IgM k
B5: 1A6: monoclonal antibody, heavy chain SEQ ID No. 7, light chain SEQ ID No. 8; hybridoma CNCM I-3612; IgM k (antibody, V domains shown)
VH: EVQLQQSGPELVKPGASVKISCKTSGYTFTEYTLHWVKQSHGKSLEWIGGIDPNNGGTSYNQKFKGKATLTVDKSSSTAYMELRSLTSEDSAVYLCARSNSYYFDYWGQGTTLTVSS
VL: DIQMTQTTSSLSASLGDSVTISCRARQDIRNFLNWYQQRPDGTVKLLIYYTSRLHSGVPSRFSGSGSGTDYSLTISNLDQEDVATYFCQQGNTLPFTFGSGTKLEIK
modifications: mus musculus
notes: hybridoma CNCM I-3612; IgM k

Columns and labels:
different cell lines = experiment: Recognition of different cell lines by the antibodies with the FACSCAN instrument; format: cell-based; settings: FACSCAN analysis of a panel of tumor lines
Text: The hybridomas secreting antibodies recognizing the resistant tissues, and recognizing neither the tumors from the control batch PBS nor the native A549 cell which was used for establishing the tumor in vivo, are cloned and frozen. The antibodies are then produced in ascite liquid, purified, retested in immunohistochemistry before being tested in vivo on cells expressing a surface structure or antigen recognized by the antibodies (these cells were selected beforehand by FACSCAN analysis of a non-exhaustive panel of tumor lines available for each antibody).
Table 6 below as for it, groups the cells recognized by these antibodies (Recognition of the antibodies selected in histology with the FACSCAN instrument, of different cell lines).

BxPC3 cells = experiment: Pancreas xenograft model BxPC3; format: in vivo, athymic "Nude" mice; settings: 1 mg/dose two times a week; results in FIG. 7
Procedure: 10.10^6 BxPC3 cells are grafted on athymic “Nude” mice. Five days after the grafting, the tumors are measurable and the mice are divided into two batches of six mice with tumors of homogenous size. The mice are either treated with PBS (negative control) or with the antibody 2E11 (1 mg/dose), two times a week. Tumor volume tracking is carried out twice a week.
The results are illustrated in FIG. 7.

Row | Molecule | In vivo model (cells recognized by these antibodies) (different cell lines) | anti-tumoral activity (tumor volume) (BxPC3 cells) | In vivo model (cells recognized by these antibodies) (different cell lines; clone D10)
1 | B1 | HT29/BxPC3/H69 | validate the functional activity | 
2 | B2 | HepG2/H69/LnCap |  | 
3 | B3 | DU145 |  | 
4 | B4 | Colo205 |  | 
5 | B5 |  |  | LnCap/HT29
